Assay [1] has as its target T1, LRP6 (Homo sapiens, UniProt O75581).
T1 construct: expressed in transfected cells; host or cells: human HT1080 cells, retroviral vector pLNCX2
As to the kind of experiment: LRP6-mediated 125I-Mesd degradation in LRP6-transduced HT1080 cells. In kind it is cell-based. The following applies: 4 hours at 37° C. The procedure:
Ligand degradation was performed using the methods as described in Li, Y., et al., J. Biol. Chem. 275: 17187-17194, 2000. Briefly, 2×10^5 cells were seeded into 12-well dishes 1 day prior to assay. Pre-warmed assay buffer (minimal Eagle's medium containing 0.6% BSA with radioligand, 0.6 ml/well) was added to cell monolayers in the absence or the presence of unlabeled 500 nM RAP or 500 nM Mesd, followed by incubation for 4 hours at 37° C. Thereafter, the medium overlying the cell monolayers was removed and proteins were precipitated by addition of BSA to 10 mg/ml and trichloroacetic acid to 20%. Degradation of radioligand was defined as the appearance of radioactive fragments in the overlying medium that were soluble in 20% trichloroacetic acid. Kinetic analysis of endocytosis LRP6-transduced HT1080 cells were plated in 12-well plates at a density of 2×10^5 cells/well and used after overnight culture. Cells were rinsed twice in ice-cold assay buffer (minimal Eagle's medium containing 0.6% BSA), and ^125I-anti-HA IgG was added at 1 nM final concentration in cold assay buffer (0.5 ml/well). The binding of ^125I-anti-HA IgG was carried out at 4° C. for 90 minutes with gentle rocking Unbound ^125I-anti-HA IgG was removed by washing cell monolayers three times with cold assay buffer. Ice-cold stop/strip solution (0.2 M acetic acid, pH 2.6, 0.1 M NaCl) was added to one set of plates without warming up and kept on ice. The remaining plates were then placed in a 37° C. water bath and 0.5 ml assay buffer prewarmed to 37° C. was quickly added to cell monolayers to initiate internalization. After each time point, the plates were quickly placed on ice and the assay buffer was replaced with cold stop/strip solution. ^125I-anti-HA IgG that remained on the cell surface was stripped by incubation of cell monolayers with cold stop/strip solution for a total of 20 minutes (0.75 ml for 10 minutes, twice) and counted. Cell monolayers were then solubilized with low-SDS lysis buffer and counted. […] The fraction of internalized ^125I-anti-HA IgG after each time point was calculated and plotted. […]

For assay [2], the target named is T1, LRP6. The assay can be described thus: 125I-DKK1 binding to LRP6. The conditions noted are these: 500 nM unlabeled, 125I-DKK1 5 nM, 3 hours at 4° C. How it is done: Cells (2×10^5) were seeded into 12-well dishes 1 day prior to assay. Ligand-binding buffer (minimal Eagle's medium containing 0.6% BSA with a different concentration of radioligand, 0.6 ml/well) was added to cell monolayers, in the absence or the presence of 500 nM unlabeled RAP or 500 nM unlabeled Mesd, followed with incubation for 0-4 hours at 4° C. Thereafter, overlying buffer containing unbound ligand was removed, and cell monolayers were washed and lysed in low-SDS lysis buffer (62.5 mM Tris-HCl pH 6.8, 0.2% SDS, 10% v/glycerol) and counted.
RAP is a receptor antagonist for members of the LDLR family, and is able to inhibit the binding of most known ligands of the LDLR family members. DKK1 is an LRP6-specific ligand and antagonist. […] In these experiments, Serum-free conditioned medium was harvested from HEK293 cells transiently transfected with cDNA for human Myc-DKK1 and allowed to bind to LRP6-transduced HT1080 cells (B,C) and control cells (A) in the absence (A,B) or presence (C) of 1 μM Mesd. Cell-surface-bound Myc-tagged DKK proteins were fixed and detected by immunofluorescence staining with anti-Myc antibody. (D) DKK1 binding to cell surface LRP6 is inhibited by Mesd. Binding of 125I-DKK1 (5 nM) to LRP6-transduced HT1080 cells or the control cells was carried out for 3 hours at 4° C. in the absence (total) or presence of 500 nM RAP or 500 nM Mesd. […]

T1 sequence (O75581 20-1613): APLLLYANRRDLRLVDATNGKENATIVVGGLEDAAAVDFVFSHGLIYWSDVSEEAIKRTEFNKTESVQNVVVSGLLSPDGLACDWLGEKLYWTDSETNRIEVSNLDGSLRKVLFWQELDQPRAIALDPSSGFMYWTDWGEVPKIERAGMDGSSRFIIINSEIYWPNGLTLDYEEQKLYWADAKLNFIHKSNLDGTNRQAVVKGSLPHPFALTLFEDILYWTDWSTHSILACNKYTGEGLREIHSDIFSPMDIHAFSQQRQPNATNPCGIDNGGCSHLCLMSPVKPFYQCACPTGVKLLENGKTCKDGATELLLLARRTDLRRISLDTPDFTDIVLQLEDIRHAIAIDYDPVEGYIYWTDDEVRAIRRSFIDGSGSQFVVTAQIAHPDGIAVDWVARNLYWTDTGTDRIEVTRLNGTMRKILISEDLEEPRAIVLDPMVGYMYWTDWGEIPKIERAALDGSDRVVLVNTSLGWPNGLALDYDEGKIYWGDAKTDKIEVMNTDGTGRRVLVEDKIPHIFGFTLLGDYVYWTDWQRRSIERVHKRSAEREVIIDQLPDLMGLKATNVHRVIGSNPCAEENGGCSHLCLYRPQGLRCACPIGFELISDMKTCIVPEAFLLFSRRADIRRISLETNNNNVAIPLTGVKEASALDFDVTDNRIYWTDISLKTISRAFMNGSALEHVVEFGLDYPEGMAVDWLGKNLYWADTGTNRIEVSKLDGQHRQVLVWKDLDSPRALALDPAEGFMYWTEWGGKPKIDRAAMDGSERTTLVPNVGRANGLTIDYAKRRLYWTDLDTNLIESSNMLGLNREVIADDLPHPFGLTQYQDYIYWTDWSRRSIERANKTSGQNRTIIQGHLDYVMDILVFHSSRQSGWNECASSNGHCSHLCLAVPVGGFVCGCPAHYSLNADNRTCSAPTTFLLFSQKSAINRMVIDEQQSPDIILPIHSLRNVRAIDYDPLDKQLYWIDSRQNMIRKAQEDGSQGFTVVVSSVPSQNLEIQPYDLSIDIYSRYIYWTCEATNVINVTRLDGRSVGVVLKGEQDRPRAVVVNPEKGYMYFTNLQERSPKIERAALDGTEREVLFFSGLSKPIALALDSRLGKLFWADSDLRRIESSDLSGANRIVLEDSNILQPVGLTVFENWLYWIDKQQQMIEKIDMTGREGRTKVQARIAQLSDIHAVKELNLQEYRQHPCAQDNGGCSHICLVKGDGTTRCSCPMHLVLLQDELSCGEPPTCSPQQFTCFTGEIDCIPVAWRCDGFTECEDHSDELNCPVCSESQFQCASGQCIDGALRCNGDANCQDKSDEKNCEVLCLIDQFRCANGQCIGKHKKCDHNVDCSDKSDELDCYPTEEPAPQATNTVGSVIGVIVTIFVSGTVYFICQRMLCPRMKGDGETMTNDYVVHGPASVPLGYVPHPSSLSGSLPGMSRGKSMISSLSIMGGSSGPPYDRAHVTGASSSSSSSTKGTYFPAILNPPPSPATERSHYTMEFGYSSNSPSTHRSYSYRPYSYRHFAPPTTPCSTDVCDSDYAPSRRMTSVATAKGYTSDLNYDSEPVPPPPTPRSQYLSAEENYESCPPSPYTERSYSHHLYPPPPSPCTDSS

B1: Mesd: Recombinant full-length mouse Mesd expressed in E. coli, N-terminal polyhistidine tail, lacking the signal peptide (protein)
chain: ADTPGEATPPPRKKKDIRDYNDADMARLLEQWEKDDDIEEGDLPEHKRPSAPIDFSKLDPGKPESILKMTKKGKTLMMFVTVSGNPTEKETEEITSLWQGSLFNANYDVQRFIVGSDRAIFMLRDGSYAWEIKDFLVSQDRCAEVTLEGQMYPGKGGGSKEKNKTKPEKAKKKEGDRKPRASKEDNRAGSRREDL
modifications: left off: small tags and cut ends
notes: Recombinant full-length mouse Mesd expressed in E. coli, N-terminal polyhistidine tail, lacking the signal peptide
B1: the 125I-Mesd degradation with LRP6 [1] (5 nM) came to 320 fmoles/mg cell protein. Besides, in the assay with LRP6 [1] (500 nM unlabeled competitor), the “Inhibition of 125I-Mesd degradation” value was “completely”. The “Effect on increased 125I-DKK1 binding of LRP6-expressing HT1080 cells” value in the assay with LRP6 [2] was “abolished”.

(Values after patent publication US8198236B2, “Methods and compositions for the treatment of cancer” (Washington University, priority 2007, dated 2012).)
